Reference: patent US20250289885A1 (TRUSTEES OF BOSTON UNIVERSITY, published 2025)
Where a chain is given by its changes, count along the chain named. In names and notes the source's numbering stands. One block for each binder: values may come before it.

Legend:
[1] = target: T1, Notch1-Gal4 chimeric receptor (hN1 ECD-Gal4 ICD) on CHO-K1 cells (human, UniProt P46531 19-1735); test: fluorescence microscopy of JFX650-labelled probody on CHO-K1 cells expressing Notch1-Gal4
T1 construct: extracellular domain; H2B-mTurq2 marker; also called Notch1-Ga4; NOTCH1 ECD-GAL4 ICD; not shown: transmembrane segment and Gal4 intracellular domain
T1 sequence (P46531 19-1735, stated change not applied): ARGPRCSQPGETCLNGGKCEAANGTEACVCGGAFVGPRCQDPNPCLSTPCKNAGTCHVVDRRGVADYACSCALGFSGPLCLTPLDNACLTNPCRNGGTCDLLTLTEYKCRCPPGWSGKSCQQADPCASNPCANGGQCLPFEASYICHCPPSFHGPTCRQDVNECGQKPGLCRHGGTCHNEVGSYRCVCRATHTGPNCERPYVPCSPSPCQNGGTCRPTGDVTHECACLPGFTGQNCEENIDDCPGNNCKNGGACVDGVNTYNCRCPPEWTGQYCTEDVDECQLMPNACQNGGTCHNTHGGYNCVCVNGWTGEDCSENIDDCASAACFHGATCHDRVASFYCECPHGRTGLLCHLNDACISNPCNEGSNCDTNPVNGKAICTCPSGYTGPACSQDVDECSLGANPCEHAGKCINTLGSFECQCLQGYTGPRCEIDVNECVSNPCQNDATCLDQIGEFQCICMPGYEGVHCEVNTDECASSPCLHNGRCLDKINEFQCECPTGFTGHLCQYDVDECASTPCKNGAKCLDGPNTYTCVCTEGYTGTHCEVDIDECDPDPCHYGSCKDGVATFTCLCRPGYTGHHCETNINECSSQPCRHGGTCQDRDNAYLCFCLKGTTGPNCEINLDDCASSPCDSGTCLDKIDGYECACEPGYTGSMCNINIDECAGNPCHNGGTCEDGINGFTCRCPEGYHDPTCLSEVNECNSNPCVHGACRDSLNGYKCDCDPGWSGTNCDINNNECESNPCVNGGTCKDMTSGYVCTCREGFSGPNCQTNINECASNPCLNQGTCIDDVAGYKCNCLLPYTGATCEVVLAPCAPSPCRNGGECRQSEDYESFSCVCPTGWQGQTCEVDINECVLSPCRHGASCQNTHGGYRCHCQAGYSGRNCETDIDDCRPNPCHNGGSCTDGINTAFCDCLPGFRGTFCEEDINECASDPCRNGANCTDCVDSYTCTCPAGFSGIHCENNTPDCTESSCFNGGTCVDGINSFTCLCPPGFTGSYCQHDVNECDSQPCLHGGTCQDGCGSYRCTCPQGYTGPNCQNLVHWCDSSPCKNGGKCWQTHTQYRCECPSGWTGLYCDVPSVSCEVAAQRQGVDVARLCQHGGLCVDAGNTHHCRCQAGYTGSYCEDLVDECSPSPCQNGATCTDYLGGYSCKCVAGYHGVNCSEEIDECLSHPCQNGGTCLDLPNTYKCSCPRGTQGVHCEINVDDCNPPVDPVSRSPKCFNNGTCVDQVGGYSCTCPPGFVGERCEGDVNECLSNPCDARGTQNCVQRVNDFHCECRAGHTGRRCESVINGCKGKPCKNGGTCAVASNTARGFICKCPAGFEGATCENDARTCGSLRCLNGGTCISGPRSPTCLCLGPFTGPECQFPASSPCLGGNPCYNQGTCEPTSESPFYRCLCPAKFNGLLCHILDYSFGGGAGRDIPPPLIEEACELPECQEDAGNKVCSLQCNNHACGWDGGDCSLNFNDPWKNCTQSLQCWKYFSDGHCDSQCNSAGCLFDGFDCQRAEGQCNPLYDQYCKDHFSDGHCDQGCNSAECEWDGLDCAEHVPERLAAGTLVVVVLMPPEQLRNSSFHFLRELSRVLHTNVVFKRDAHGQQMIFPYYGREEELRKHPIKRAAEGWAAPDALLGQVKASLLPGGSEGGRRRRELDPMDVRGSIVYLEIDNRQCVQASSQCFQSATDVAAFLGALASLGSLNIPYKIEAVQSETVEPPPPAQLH
Excerpt: FIGS. 30A and 30B present data showing anti-NRR1-based probodies can bind Notch1 receptors following deletion of the S1 loop (ΔS1) containing the NRR's furin cleavage site. The probodies used represent the anti-NRR1 scFv fused to with a soluble mutant NRR (V1667D) from Notch1, linked together via a TEV protease substrate sequence. The probodies were also fused with a HaloTag domain, which remains attached to the anti-NRR scFv following TEV cleavage. CHO-K1 cells expressing a Notch1-Gal4 chimeric receptor were treated with intact (uncleaved) and TEV protease-cleaved versions of the indicated probodies. The HaloTag domains were conjugated with a JFX650 dye to permit visualization of their binding to cell surface Notch1-Ga4 receptors. (FIG. 30A) Fluorescently labeled probody containing the S1 cleavage loop (Probody^V1667D-JF650) binds Notch1-Gal4 only in its TEV protease-cleaved state. (FIG. 30B) Fluorescently labeled probody containing the S1 cleavage loop deletion (Probody^V1667D(ΔS1)-JF650) similarly binds Notch1-Gal4 in a manner that is dependent on TEV protease cleavage. Insets represent emissions from a constitutively expressed H2B-mTurq2 expressed by the analyzed cells.

[2] = target: T2, hNotch1 receptor, stably integrated, on clonal CHO-K1 cells (human, UniProt P46531 19-2555); test: fluorescence microscopy of cell-surface bound probody on clonal CHO-K1 cells expressing hNotch1, 40-minute incubation, wash, fixation
T2 construct: whole, on cells; also called human Notch1
T2 sequence (P46531 19-2555): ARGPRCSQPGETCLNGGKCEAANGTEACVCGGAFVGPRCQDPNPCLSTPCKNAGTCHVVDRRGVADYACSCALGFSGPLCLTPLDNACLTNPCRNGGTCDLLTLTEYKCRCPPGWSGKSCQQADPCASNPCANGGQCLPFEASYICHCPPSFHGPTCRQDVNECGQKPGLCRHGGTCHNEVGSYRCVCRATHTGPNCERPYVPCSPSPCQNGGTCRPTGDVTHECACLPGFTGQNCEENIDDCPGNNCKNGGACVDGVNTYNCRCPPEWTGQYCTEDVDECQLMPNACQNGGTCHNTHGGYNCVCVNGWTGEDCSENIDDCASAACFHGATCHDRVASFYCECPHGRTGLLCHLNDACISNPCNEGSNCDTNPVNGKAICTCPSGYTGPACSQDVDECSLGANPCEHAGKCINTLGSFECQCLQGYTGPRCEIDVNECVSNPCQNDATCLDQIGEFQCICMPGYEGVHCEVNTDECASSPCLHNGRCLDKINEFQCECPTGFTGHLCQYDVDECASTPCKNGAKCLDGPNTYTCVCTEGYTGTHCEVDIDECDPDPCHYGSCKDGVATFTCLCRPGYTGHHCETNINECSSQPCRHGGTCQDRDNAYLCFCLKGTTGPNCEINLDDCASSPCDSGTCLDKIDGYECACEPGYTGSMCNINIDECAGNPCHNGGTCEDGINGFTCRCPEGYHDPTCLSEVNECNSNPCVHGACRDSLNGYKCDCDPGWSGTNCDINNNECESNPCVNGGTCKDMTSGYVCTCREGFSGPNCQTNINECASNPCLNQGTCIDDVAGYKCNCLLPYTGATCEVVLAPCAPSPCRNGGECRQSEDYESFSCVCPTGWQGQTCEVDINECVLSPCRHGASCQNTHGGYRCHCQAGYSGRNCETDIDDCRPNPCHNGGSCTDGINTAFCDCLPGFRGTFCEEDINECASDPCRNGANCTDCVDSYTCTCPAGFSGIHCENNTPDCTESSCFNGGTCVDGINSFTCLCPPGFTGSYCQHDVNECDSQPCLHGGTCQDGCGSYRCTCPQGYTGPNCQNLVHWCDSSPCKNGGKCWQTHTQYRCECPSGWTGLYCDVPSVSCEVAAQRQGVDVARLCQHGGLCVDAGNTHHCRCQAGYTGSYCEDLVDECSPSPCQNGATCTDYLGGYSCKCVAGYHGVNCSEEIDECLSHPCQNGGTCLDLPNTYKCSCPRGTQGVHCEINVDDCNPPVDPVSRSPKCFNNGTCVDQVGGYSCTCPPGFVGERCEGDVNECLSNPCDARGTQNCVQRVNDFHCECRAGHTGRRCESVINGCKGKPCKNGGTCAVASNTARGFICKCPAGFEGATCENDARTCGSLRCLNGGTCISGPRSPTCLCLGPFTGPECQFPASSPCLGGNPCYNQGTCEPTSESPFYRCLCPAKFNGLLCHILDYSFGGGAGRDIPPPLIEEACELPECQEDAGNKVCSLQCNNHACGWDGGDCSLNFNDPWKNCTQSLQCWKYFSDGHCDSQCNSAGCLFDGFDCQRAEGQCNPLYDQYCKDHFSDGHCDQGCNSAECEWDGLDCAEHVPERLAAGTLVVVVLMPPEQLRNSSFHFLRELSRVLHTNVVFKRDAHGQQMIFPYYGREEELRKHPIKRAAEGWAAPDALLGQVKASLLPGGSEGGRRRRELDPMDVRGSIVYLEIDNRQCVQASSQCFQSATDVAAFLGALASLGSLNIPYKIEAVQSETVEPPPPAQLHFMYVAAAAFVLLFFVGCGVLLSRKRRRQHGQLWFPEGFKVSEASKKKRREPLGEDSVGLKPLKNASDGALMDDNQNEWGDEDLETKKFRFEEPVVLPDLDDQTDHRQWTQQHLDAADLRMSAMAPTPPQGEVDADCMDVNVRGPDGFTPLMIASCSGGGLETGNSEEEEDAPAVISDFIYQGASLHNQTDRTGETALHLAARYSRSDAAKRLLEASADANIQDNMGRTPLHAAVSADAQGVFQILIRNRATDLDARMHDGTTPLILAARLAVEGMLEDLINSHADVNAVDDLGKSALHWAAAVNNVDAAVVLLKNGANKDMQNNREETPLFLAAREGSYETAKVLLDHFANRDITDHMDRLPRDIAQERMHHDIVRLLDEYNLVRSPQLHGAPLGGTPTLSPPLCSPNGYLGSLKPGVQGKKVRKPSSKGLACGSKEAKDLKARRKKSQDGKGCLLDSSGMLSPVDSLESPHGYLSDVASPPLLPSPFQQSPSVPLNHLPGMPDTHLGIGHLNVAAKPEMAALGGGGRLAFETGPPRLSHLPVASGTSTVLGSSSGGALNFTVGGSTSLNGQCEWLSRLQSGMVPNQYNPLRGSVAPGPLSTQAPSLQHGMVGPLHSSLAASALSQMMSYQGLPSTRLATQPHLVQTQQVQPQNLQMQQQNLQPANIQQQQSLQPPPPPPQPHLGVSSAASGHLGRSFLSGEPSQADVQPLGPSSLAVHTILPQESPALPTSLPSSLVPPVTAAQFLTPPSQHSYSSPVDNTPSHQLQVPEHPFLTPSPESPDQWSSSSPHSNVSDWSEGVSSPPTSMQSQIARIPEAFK
Excerpt: FIGS. 33A-33C present schematics and data showing activation of a probody/masked antibody with specificity against human Notch1 (hNotch) NRR. (FIG. 33A) Schematic depicting the TEV protease (TEVp)-mediated activation and binding of the anti-hNotch1 probody. The probody sequence used contains the V1677D mutant NRR as a “mask” and is linked to an anti-hNotch1 scFv via a linker containing a TEVp substrate sequence. Upon cleavage by TEVp, the NRR mask dissociates from the scFv and is thus able to bind its corresponding antigen. A fluorophore is linked to the probody sequence to permit visualization. (FIGS. 33B and 33C) Tests of scFv binding to hNotch1. Clonal CHO-K1 cells expressing a stably integrated hNotch1 receptor were incubated with the body alone (FIG. 33B) or with the pro body treated with TEVp (FIG. 33C). Following a 40-minute incubation, probody-containing media was removed, and cells were washed with fresh media prior to fixation and DNA staining with Hoechst-JF526 (inset). Cells were imaged to detect cell-surface bound (activated) probody and Hoechst-JF526. Binding to hNotch1 was observed only with the TEVp-cleaved probody sequence. The antibody sequence used in the body can inhibit signaling by wild-type and various disease-associated hNotch1 mutations (Wu et al. Nature 464: 1052-1057 (2010)).

[3] = target: T3, human Notch1-derived receptor overexpressed on CHO-K1 cells (human, UniProt P46531 19-1762, limits assumed); test: fluorescence microscopy of JFX650-labelled probody on CHO-K1 cells overexpressing a human Notch1-derived receptor
T3 construct: Cells also express H2B-mTurq; also called Notch1 receptors
Description: FIG. 37 present data showing Probody with a mask based on the wild-type Notch1-NRR binds Notch1 Receptors in a Cleavage-Dependent Manner. A probody containing the anti-NRR1 scFv was fused to a TEV protease cleavable linker and the wild-type Notch1 NRR. The probodies also contained a HaloTag for labeling with a JFX650 dye. Binding of the probody to Notch1 receptors was tested using uncleaved and TEV protease-cleaved probody. The evaluated cells were based on CHO-K1 celle overexpressing a human Notch1-derived receptor; cells also expressed H2B-mTurq as a fluorescent marker (inset).

[4] = target: T4, mouse Notch1 NRR, non-mutated (WT), in the control receptor HA-Halo-antiNRR-TEVs-NRR-GAL4VP64 (mouse, UniProt Q01705 1427-1752); test: anti-HA immunoblot (aHA-HRP) of cell lysate and conditioned media of HEK293-FT cells expressing the receptor, after TEVp cleavage of the scFv-NRR linker
T4 construct: Domain of a synthetic receptor on cells; also called non-mutated NRR control; Mouse NRR1-WT
T4 sequence (Q01705 1427-1752 limits assumed, change not shown): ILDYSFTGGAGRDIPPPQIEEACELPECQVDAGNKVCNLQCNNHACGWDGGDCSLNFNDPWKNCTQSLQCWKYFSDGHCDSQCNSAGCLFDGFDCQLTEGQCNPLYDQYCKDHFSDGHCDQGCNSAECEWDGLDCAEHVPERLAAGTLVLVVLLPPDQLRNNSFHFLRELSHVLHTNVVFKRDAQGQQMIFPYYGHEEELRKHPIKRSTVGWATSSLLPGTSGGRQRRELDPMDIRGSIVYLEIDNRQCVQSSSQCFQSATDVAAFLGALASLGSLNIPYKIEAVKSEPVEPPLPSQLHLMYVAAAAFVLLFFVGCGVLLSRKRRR
Description: (§1) HEK293-FT cells were transfected with pcDNA3-based plasmids encoding the indicated receptor with TEVs substrate linker and N-terminal HA tag. (FIG. 11A) cell lysates and conditioned anti-HA immunoblots after 3 hours of TEVp incubation, overwise indicated. FL; full-length receptor, NTF; N-terminal fragment, Ab; ‘A-2’ variant of the anti-NRR1 scFv. (FIG. 11B) Inventors further evaluated the efficiency of TEVs cleavage by comparing an anti-HA blot (which stains all copies of the receptor, including those in the secretory pathway) to a streptavidin blot probing for surface-bound receptor copies by labelling receptors with a cell-impermeant halo-ligand-biotin conjugate. […] Immunoblot of cell lysates and conditioned media of HEK293-FT expressing the ‘V1677D’ design by transient transfection. Cells were stained with cell-impermeant halo-biotin prior to TEVp addition. Cell lysates and conditioned media were collected for immunoblot analysis after 3 hours. Colored triangle markers denote FL (top arrow of top blot), NTF (middle arrow of top blot; top arrow of bottom blot) and cleaved NTF (bottom arrows of both blots) species.
(§2) Inventors then evaluated whether these receptors have different TEVs cleavage efficiencies and anti-NRR1 scFv dissociation kinetics. They immunoblotted for the anti-NRR1 scFv mask in cell lysates and conditioned media in cells expressing the non-mutated WT, V1677D, and A1702P NRR receptors in the absence or addition of exogenous TEVp. Inventors than chose to analyze the V1677D and A1702P mutations since they were the designs with the highest and lowest protease-induced reporter activation, respectively.

[5] = target: T5, mouse Notch1 NRR with the T-ALL mutation A1702P, in the receptor design (mouse, UniProt Q01705 1427-1752); test: as above
T5 construct: also called A1691P in mouse Notch1
T5 sequence (Q01705 1427-1752 A1691P limits assumed): as the sequence (Q01705 1427-1752 limits assumed, change not shown) above, with A265P counted along it
Description: as §1, §2

[6] = target: T6, mouse Notch1 NRR with V1677D, in the ProNotch receptor (mouse, UniProt Q01705 1427-1752); test: as above
T6 construct: Domain of a synthetic receptor on cells; also called NRR(V1677D); Mouse NRR1-V1677D
T6 sequence (Q01705 1427-1752 V1666D limits assumed): as the sequence (Q01705 1427-1752 limits assumed, change not shown) above, with V240D counted along it
Description: as §1, §2

B1: TEV-cleavable Anti-Notch1 probody, Genentech scFv, S1 loop deletion (HaloTag-anti-NRR1-scFv-TEVcs-msNRR1^V1677D-deltaS1), intact (uncleaved) (other)
chain: YPYDVPDYATGMAEIGTGFPFDPHYVEVLGERMHYVDVGPRDGTPVLFLHGNPTSSYVWRNIIPHVAPTHRCIAPDLIGMGKSDKPDLGYFFDDHVRFMDAFIEALGLEEVVLVIHDWGSALGFHWAKRNPERVKGIAFMEFIRPIPTWDEWPEFARETFQAFRTTDVGRKLIIDQNVFIEGTLPMGVVRPLTEVEMDHYREPFLNPVDREPLWRFPNELPIAGEPANIVALVEEYMDWLHQSPVPKLLFWGTPGVLIPPAEAARLAKSLPNCKAVDIGPGLNLLQEDNPDLIGSEIARWLSTLEISGGGGGSTGDGGGGEVQLVESGGGLVQPGGSLRLSCAASGFTFSSYWIHWVRQAPGKGLEWVARINPPNRSNQYADSVKGRFTISADTSKNTAYLQMNSLRAEDTAVYYCARGSGFRWVMDYWGQGTLVTVSSGGSSRSSSSGGGGSGGGGDIQMTQSPSSLSASVGDRVTITCRASQDVSTAVAWYQQKPGKAPKLLIYSASFLYSGVPSRFSGSGSGTDFTLTISSLQPEDFATYYCQQFYTTPSTFGQGTKVEIKGSNSGGTLEGGGSGENLYFQGGGGGRTGGGSEQKLISEEDLGGGSILDYSFTGGAGRDIPPPQIEEACELPECQVDAGNKVCNLQCNNHACGWDGGDCSLNFNDPWKNCTQSLQCWKYFSDGHCDSQCNSAGCLFDGFDCQLTEGQCNPLYDQYCKDHFSDGHCDQGCNSAECEWDGLDCAEHVPERLAAGTLVLVVLLPPDQLRNNSFHFLRELSHVLHTNVVFKRDAQGQQMIFPYYGMDIRGSIDYLEIDNRQCVQSSSQCFQSATDVAAFLGALASLGSLNIPYKIEAVKSEPVEGPV
modifications: HaloTag domain conjugated with JFX650 dye
notes: also called Probody^V1667D(ΔS1); Probody^V1667D(ΔS1)-JF650
binding result [1]: no binding

B4: 'A-2' variant of the anti-NRR1 scFv (mask domain) (scFv)
scFv: EVQLVESGGGLVQPGGSLRLSCAASGFTFSSYWIHWVRQAPGKGLEWVARINPPNRSNQYADSVKGRFTISADTSKNTAYLQMNSLRAEDTAVYYCARGSGFRWVMDYWGQGTLVTVSSGGSSRSSSSGGGGSGGGGDIQMTQSPSSLSASVGDRVTITCRASQDVSTAVAWYQQKPGKAPKLLIYSASFLYSGVPSRFSGSGSGTDFTLTISSLQPEDFATYYCQQFYTTPSTFGQGTKVEIK
notes: Tested as the N-terminal mask domain of receptors HA-Halo-antiNRR-TEVs-NRR-GAL4VP64, that is on the same polypeptide as the NRR until TEVp cleaves the linker; carries HA tag and HaloTag at its N-terminus; also called A2 scFv
binding result [4]: binds
binding result [5]: binds
binding result [6]: binds

Now from value to binder:

binding result [2]: no binding
binding result [1]: no binding
B2: TEV-cleavable Anti-Notch1 probody, Genentech scFv (HaloTag-anti-NRR1-scFv-TEVcs-msNRR1^V1677D), intact (uncleaved) (other)
chain: YPYDVPDYATGMAEIGTGFPFDPHYVEVLGERMHYVDVGPRDGTPVLFLHGNPTSSYVWRNIIPHVAPTHRCIAPDLIGMGKSDKPDLGYFFDDHVRFMDAFIEALGLEEVVLVIHDWGSALGFHWAKRNPERVKGIAFMEFIRPIPTWDEWPEFARETFQAFRTTDVGRKLIIDQNVFIEGTLPMGVVRPLTEVEMDHYREPFLNPVDREPLWRFPNELPIAGEPANIVALVEEYMDWLHQSPVPKLLFWGTPGVLIPPAEAARLAKSLPNCKAVDIGPGLNLLQEDNPDLIGSEIARWLSTLEISGGGGGSTGDGGGGEVQLVESGGGLVQPGGSLRLSCAASGFTFSSYWIHWVRQAPGKGLEWVARINPPNRSNQYADSVKGRFTISADTSKNTAYLQMNSLRAEDTAVYYCARGSGFRWVMDYWGQGTLVTVSSGGSSRSSSSGGGGSGGGGDIQMTQSPSSLSASVGDRVTITCRASQDVSTAVAWYQQKPGKAPKLLIYSASFLYSGVPSRFSGSGSGTDFTLTISSLQPEDFATYYCQQFYTTPSTFGQGTKVEIKGSNSGGTLEGGGSGENLYFQGGGGGRTGGGSEQKLISEEDLGGGSILDYSFTGGAGRDIPPPQIEEACELPECQVDAGNKVCNLQCNNHACGWDGGDCSLNFNDPWKNCTQSLQCWKYFSDGHCDSQCNSAGCLFDGFDCQLTEGQCNPLYDQYCKDHFSDGHCDQGCNSAECEWDGLDCAEHVPERLAAGTLVLVVLLPPDQLRNNSFHFLRELSHVLHTNVVFKRDAQGQQMIFPYYGHEEELRKHPIKRSTVGWATSSLLPGTSGGRQRRELDPMDIRGSIDYLEIDNRQCVQSSSQCFQSATDVAAFLGALASLGSLNIPYKIEAVKSEPVEGPV
modifications: HaloTag domain conjugated with a fluorescent HaloTag-ligand dye in the binding tests (JFX650; Halo-JF635i in paragraph 360)
notes: Secreted protein; also called Probody^V1667D; Probody^V1667D-JF650

binding result [3]: no binding
B3: TEV-cleavable Anti-Notch1 probody, Genentech scFv, Wild-type NRR (HaloTag-anti-NRR1-scFv-TEVcs-msNRR1^WT), intact (uncleaved) (other)
chain: B2 chain with D849V
modifications: HaloTag labelled with JFX650 dye
notes: also called Probody with a mask based on the wild-type Notch1-NRR
